The values that follow are results of earlier work, collected in PMC7411019.

One may read the Kd as the concentration at which binding is half-saturated.

For this data set, the target named is cTnI-binding peptide.

Cardiac troponin I 114-144, sequence (P19429 114-144): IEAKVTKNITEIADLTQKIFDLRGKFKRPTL

With “Cardiac troponin I 114-144 (from UniProt P19429)”, the dissociation constant Kd is 270 pM.
